B1: 6-2 mAb (antibody, V domains shown)
VH: QVQLVQSGGGLVQPGGSLRLSCAASGFTFSSYSMNWVRQAPGKGLEWVSYISSSSSTIYYADSVKGRFTISRDNAKNSLYLQMNSLRAEDTAVYYCARWDGYCSGGSCYSGMDYWGQGTLVTVS
VL: not shown
notes: Human monoclonal IgG; also called clone 6-2; clone 6-2 IgG1
B2: 6-15 mAb (antibody, V domains shown)
VH: B1 VH
VL: DIEMTQSPSSLSASVGDKVTITCQASQDISNYLNWYQQKPGKAPKLLIYDASNLETGVPSRFSGSGSGTDSTFTISSLQPEDIATYYCQQYDNLPLTFGGGTKVEIK
notes: Human monoclonal IgG (detected with anti-human IgG Fc); also called clone 6-15
B3: 항-DR3 4-4 항체 (4-4 mAb) (antibody, V domains shown)
VH: EVQLVESGGGLVKPGGSLRLSCAASGFTFSDYYMSWIRQAPGKGLEWVSYISSSSSYTNYADSVKGRFTISRDNAKNSLYLQMNSLRAEDTAVYYCASNVDTAMVGAFDIWGQGTLVTVS
VL: DIEMTQSPSSVSASVGDTVTITCRASQHISNWLAWYQQKPGQAPKFLIYTASNLQSGVPSRFSGSGYGTDFTLTISGLQPEDFATYYCQQADSFPLTFGGGTKVDIK
notes: also called clone 4-4; clone 4-4 IgG1

What follows are binders tested against T1, DR3 on cells (DR3 stable cell line; DR3 on human PBMC T cells) (human, UniProt Q93038 25-417) (assay: FACS, DR3 stable cell line, 2 ug/ml mAb, anti-human IgG PE).
T1 construct: whole, on cells; Also used for the DR3 of hPBMC T cells in the NF-kB assays; also called 세포 표면에서 발현된 DR3; DR3 natural form
T1 sequence (looked up): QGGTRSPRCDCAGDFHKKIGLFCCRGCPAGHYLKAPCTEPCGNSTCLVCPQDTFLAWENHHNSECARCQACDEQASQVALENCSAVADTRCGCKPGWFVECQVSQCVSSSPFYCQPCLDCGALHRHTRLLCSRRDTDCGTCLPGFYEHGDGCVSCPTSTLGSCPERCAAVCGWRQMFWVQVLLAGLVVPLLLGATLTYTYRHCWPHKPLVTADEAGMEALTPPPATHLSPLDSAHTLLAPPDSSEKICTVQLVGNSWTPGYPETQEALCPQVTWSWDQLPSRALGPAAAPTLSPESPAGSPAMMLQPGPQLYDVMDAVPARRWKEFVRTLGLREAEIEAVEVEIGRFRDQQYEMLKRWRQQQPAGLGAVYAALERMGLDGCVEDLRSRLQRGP

Binding result, binds:
B1
B2
B3

Reference: patent publication KR20230175116A (dated 2023)
